The target of this test is Ib, membrane-binding component of the Iota toxin from Clostridium perfringens (N-terminal cleaved, active) (Clostridium perfringens). Nature of the test: cryo-EM structure.

For orientation: stoichiometry N means a count of units in the complex or per binding partner. “Ib, membrane-binding component of the Iota toxin from Clostridium perfringens (N-terminal cleaved, active) (natural protein)” gave a stoichiometry N of 7.

(Values after paper doi:10.1101/2024.10.10.617581.)
